Source: PMC10404625 (The Journal of Biological Chemistry, 2023)
One block for each binder: values may come before it. Ends that are not written are not given here.

Legend:
Experiment in all cases: MST
[1] = target: three Rpc53 N-ter mutant peptides
[2] = target: T1, Rpc25/17 heterodimer (S. cerevisiae, UniProt P35718 1-212; P47076 1-161)
T1 sequence (looked up) 1: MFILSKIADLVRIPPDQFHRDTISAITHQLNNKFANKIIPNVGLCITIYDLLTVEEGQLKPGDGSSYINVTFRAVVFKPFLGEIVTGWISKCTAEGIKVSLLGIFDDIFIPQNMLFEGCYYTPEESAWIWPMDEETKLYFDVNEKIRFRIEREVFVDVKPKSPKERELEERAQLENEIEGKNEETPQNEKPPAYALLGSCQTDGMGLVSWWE
T1 sequence (looked up) 2: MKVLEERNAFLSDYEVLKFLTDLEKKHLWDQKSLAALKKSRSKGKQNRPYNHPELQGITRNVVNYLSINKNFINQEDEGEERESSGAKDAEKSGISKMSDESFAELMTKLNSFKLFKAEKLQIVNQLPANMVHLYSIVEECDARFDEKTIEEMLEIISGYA

[3] = target: T2, Rpc53/37 dimerization module (Rpc53 (274–422)/Rpc37 (71–181)) (S. cerevisiae, UniProt P25441 274-422; P36121 71-181)
T2 sequence (looked up) 1: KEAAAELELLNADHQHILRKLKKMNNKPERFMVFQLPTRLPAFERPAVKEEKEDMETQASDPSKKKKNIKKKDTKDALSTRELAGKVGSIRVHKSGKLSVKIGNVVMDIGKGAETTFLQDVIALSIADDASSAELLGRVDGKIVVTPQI
T2 sequence (looked up) 2: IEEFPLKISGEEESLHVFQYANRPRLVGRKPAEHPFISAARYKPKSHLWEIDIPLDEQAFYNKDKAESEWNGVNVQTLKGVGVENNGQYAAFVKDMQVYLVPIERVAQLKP

[4] = target: T3, full-length Rpc37 (S. cerevisiae, UniProt P36121 1-282)
T3 sequence (looked up): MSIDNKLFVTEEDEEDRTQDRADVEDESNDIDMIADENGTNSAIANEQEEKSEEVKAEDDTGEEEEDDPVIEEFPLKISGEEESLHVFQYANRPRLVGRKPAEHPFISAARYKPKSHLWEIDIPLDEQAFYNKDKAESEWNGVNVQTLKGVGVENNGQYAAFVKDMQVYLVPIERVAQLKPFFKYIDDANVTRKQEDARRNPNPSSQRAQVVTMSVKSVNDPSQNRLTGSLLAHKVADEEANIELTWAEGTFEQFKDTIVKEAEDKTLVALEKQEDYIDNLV

[5] = target: T4, Tfc4 N-ter (1–580) (S. cerevisiae, UniProt P33339 1-580)
T4 sequence (looked up): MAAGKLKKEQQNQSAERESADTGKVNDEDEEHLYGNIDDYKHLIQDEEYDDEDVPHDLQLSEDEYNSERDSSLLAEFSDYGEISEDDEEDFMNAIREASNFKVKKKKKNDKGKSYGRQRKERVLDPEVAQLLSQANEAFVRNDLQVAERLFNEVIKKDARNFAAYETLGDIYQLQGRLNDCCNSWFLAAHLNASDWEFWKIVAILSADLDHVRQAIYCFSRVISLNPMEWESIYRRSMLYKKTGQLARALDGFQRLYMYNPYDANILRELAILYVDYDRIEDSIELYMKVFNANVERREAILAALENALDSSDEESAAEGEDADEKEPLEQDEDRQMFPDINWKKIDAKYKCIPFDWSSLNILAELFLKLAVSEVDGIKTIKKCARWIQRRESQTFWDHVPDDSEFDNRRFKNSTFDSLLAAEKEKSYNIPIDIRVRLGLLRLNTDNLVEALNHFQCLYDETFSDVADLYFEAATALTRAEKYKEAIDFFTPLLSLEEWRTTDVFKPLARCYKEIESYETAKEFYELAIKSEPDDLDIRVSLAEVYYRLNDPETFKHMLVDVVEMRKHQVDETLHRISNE

- Kd [1]: 0.04 to 0.1 µM
B1: Tfc4 N-ter (1–580) (domain or fragment)
chain: T4 sequence (looked up)

- Kd [2]: 0.23 ± 0.17 µM
- Kd [3]: 1.62 ± 0.65 µM
- Kd [4]: 0.0082 ± 0.0017 µM
- Kd [5]: 0.0056 ± 0.0017 µM
B2: Rpc53 N-ter (1–57) fragment (domain or fragment, S. cerevisiae, UniProt P25441 1-57, looked up)
chain: MSSNKGNGRLPSLKDSSSNGGGSAKPSLKFKPKAVARKSKEEREAAASKVKLEEESK
modifications: also: Alexa Fluor 647 via NHS ester, position not given here
